In paper PMC8385704 one finds EC50 data, which are given here for three substances.

Sequence of recombinant S1-subunit or RBD of HCoV-NL63 (domain or fragment) (Q6Q1S2 19-717 limits assumed): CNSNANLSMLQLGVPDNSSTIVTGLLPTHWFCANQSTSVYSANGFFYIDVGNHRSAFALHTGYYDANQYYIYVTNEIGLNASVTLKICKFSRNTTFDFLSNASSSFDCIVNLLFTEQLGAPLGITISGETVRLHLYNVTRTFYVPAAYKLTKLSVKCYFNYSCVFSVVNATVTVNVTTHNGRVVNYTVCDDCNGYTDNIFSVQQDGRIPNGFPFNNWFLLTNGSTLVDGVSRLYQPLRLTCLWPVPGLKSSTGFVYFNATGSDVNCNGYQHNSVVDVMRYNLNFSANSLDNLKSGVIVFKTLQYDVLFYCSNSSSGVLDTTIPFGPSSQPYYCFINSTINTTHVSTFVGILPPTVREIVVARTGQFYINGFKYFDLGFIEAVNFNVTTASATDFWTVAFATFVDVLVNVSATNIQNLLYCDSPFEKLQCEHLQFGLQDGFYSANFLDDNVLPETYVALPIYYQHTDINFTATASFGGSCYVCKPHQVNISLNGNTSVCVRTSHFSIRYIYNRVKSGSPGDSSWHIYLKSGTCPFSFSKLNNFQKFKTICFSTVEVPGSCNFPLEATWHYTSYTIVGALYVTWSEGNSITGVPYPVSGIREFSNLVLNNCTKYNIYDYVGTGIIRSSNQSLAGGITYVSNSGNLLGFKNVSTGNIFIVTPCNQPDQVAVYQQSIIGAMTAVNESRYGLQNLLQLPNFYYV

This assay deals with ACE2-Fc fusion protein (extracellular domain of human ACE2 and the Fc region of human IgG1) (human) (UniProt Q9BYF1). As to the kind of experiment: ELISA.
Sequence of ACE2-Fc fusion protein (extracellular domain of human ACE2 and the Fc region of human IgG1) (human) (Q9BYF1 18-740): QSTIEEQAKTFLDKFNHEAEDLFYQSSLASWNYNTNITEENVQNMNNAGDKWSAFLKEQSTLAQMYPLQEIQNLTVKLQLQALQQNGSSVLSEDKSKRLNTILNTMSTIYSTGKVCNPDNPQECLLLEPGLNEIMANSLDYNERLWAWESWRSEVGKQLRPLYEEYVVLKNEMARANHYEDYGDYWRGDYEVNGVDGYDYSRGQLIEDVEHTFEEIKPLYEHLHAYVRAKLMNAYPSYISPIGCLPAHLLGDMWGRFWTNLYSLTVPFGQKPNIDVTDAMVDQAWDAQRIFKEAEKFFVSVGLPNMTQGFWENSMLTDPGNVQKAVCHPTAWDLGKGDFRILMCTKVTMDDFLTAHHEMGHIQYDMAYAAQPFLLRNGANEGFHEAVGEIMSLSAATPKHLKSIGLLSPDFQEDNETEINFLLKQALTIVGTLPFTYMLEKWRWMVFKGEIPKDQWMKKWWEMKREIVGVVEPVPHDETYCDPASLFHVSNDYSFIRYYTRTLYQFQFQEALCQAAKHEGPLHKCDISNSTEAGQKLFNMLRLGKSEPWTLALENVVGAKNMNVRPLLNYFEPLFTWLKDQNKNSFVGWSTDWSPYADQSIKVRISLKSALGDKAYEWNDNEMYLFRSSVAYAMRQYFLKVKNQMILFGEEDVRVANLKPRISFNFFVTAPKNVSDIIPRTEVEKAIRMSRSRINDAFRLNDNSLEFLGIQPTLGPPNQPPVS
“recombinant S1-subunit or RBD of SARS-CoV (domain or fragment)”: the half-maximal effective concentration (EC50) came out at 1.1 nM. The figure for “recombinant S1-subunit or RBD of HCoV-NL63 (domain or fragment)” is 24.2 nM; for “recombinant S1-subunit or RBD of SARS-CoV-2 (domain or fragment)” it is 11.8 nM.
